Assay results taken from PMC5959753 (Cell chemical biology, 2018).
Where a chain is given by its changes, count along the chain named. Read-outs that look alike come from different tables or passages of the source.

Assays:
crystal structure [1] = target: the molecule itself; test: crystal structure
crystal structure [2] = target: the molecule itself; test: crystal structure; remark: listed apart in the source

B1: Neurospora crassa C-S lyase Egt2, wild type (enzyme, UniProt A7UX13 1-473, looked up)
chain: MVATTVELPLQQKADAAQTVTGPLPFGNSLLKEFVLDPAYRNLNHGSFGTIPSAIQQKLRSYQTAAEARPCPFLRYQTPVLLDESRAAVANLLKVPVETVVFVANATMGVNTVLRNIVWSADGKDEILYFDTIYGACGKTIDYVIEDKRGIVSSRCIPLIYPAEDDDVVAAFRDAIKKSREEGKRPRLAVIDVVSSMPGVRFPFEDIVKICKEEEIISCVDGAQGIGMVDLKITETDPDFLISNCHKWLFTPRGCAVFYVPVRNQHLIRSTLPTSHGFVPQVGNRFNPLVPAGNKSAFVSNFEFVGTVDNSPFFCVKDAIKWREEVLGGEERIMEYMTKLAREGGQKVAEILGTRVLENSTGTLIRCAMVNIALPFVVGEDPKAPVKLTEKEEKDVEGLYEIPHEEANMAFKWMYNVLQDEFNTFVPMTFHRRRFWARLSAQVYLEMSDFEWAGKTLKELCERVAKGEYKESA
modifications: PLP covalently bound to K247 (internal aldimine); selenomethionine in the derivative crystals used for the final structure
stoichiometry N (crystal structure [1]): 2

B2: Neurospora crassa C-S lyase Egt2 Y134F (enzyme, UniProt A7UX13 1-473, looked up)
chain: B1 chain with Y134F
modifications: PLP covalently bound to K247 (internal aldimine)
stoichiometry N (crystal structure [2]): 2
